Laboratory results as given in PMC4458174 (DNA repair, 2015).
Positions count from the first letter of the chain named. Names and notes keep the numbering of the source.

Molecular target: T1, mouse Myh (mMyh), His-tagged (mouse, UniProt Q99P21 1-515)
T1 sequence (looked up): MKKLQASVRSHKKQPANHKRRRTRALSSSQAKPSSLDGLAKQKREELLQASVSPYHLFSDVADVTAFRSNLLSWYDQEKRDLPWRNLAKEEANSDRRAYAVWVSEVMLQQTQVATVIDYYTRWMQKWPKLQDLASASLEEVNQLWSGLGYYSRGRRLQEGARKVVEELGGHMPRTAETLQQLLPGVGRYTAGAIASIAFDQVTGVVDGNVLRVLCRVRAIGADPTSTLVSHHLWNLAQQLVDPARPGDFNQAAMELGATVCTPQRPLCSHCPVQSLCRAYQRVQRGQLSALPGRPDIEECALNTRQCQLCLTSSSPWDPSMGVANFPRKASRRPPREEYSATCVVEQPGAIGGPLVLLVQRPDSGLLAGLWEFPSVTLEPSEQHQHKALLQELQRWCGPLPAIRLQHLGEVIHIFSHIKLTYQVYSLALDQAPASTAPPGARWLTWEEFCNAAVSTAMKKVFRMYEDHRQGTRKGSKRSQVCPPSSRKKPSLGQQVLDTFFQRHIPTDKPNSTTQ
Assay: pull-down

B1: GST-hHus1N (residues 1-146) (domain or fragment, human, UniProt O60921 1-146, looked up)
chain: MKFRAKIVDGACLNHFTRISNMIAKLAKTCTLRISPDKLNFILCDKLANGGVSMWCELEQENFFNEFQMEGVSAENNEIYLELTSENLSRALKTAQNARALKIKLTNKHFPCLTVSVELLSMSSSSRIVTHDIPIKVIPRKLWKDL
binding result: binds

B2: GST-hHus1N(-) (residues 1-133) (domain or fragment, human, UniProt O60921 1-133, looked up)
chain: MKFRAKIVDGACLNHFTRISNMIAKLAKTCTLRISPDKLNFILCDKLANGGVSMWCELEQENFFNEFQMEGVSAENNEIYLELTSENLSRALKTAQNARALKIKLTNKHFPCLTVSVELLSMSSSSRIVTHDI
binding result: binds

B3: GST-tagged hHus1 (wild type) (natural protein, human, UniProt O60921 1-280, looked up)
chain: MKFRAKIVDGACLNHFTRISNMIAKLAKTCTLRISPDKLNFILCDKLANGGVSMWCELEQENFFNEFQMEGVSAENNEIYLELTSENLSRALKTAQNARALKIKLTNKHFPCLTVSVELLSMSSSSRIVTHDIPIKVIPRKLWKDLQEPVVPDPDVSIYLPVLKTMKSVVEKMKNISNHLVIEANLDGELNLKIETELVCVTTHFKDLGNPPLASESTHEDRNVEHMAEVHIDIRKLLQFLAGQQVNPTKALCNIVNNKMVHFDLLHEDVSLQYFIPALS
binding result: binds

B4: GST-hHus1 V137A (natural protein, human, UniProt O60921 1-280, looked up)
chain: B3 chain with V137A
binding result: binds

B5: GST-hHus1 K136A (natural protein, human, UniProt O60921 1-280, looked up)
chain: B3 chain with K136A
binding result: binds

B6: GST-hHus1C (residues 147-280) (domain or fragment, human, UniProt O60921 147-280, looked up)
chain: QEPVVPDPDVSIYLPVLKTMKSVVEKMKNISNHLVIEANLDGELNLKIETELVCVTTHFKDLGNPPLASESTHEDRNVEHMAEVHIDIRKLLQFLAGQQVNPTKALCNIVNNKMVHFDLLHEDVSLQYFIPALS
binding result: binds

B7: GST-hHus1N(+) (residues 1-155) (domain or fragment, human, UniProt O60921 1-155, looked up)
chain: MKFRAKIVDGACLNHFTRISNMIAKLAKTCTLRISPDKLNFILCDKLANGGVSMWCELEQENFFNEFQMEGVSAENNEIYLELTSENLSRALKTAQNARALKIKLTNKHFPCLTVSVELLSMSSSSRIVTHDIPIKVIPRKLWKDLQEPVVPDPD
binding result: binds
